What was measured:
[1] = biological target: T1, N-cadherin on the cell surface (PC3 cells and LNCaP N-cadherin transfected cells) (human, UniProt P19022 160-906); assay: flow cytometry, diabody at 2 ug/ml on PC3 cells
T1 construct: whole, on cells; DU145 and untransfected LNCaP cells served as N-cadherin negative cells; also called cellular N-cadherin; cell surface N-cadherin
T1 sequence (looked up): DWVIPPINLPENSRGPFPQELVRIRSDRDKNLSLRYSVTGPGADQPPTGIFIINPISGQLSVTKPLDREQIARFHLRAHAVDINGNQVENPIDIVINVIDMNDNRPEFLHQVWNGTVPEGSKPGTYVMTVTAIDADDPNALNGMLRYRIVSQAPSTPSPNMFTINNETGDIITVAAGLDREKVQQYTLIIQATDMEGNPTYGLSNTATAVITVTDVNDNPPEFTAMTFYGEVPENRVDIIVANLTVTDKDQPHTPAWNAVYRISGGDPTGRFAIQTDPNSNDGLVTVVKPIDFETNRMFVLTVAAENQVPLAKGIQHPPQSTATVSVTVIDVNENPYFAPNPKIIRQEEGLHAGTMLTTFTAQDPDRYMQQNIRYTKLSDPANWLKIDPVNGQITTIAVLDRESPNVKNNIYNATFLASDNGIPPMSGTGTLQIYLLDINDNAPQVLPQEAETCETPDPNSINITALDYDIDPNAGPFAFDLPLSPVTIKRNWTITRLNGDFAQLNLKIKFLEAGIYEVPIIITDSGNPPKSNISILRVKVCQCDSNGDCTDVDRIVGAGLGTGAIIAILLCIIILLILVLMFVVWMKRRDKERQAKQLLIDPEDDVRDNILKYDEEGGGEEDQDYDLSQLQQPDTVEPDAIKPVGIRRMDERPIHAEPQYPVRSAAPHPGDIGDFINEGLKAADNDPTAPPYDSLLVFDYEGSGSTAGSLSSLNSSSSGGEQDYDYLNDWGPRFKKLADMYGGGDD

[2] = biological target: T1, N-cadherin on the cell surface (PC3 …); assay: flow cytometry, diabody on N-cadherin positive cells
Description: Flow cytometry was conducted to assess binding of phage antibody clones and diabodies to cellular N-cadherin. For phage antibody staining supernatant concentrated 20 times was used. Individual clones were grown in 20 ml 2TY to a density of 0.5 O.D_{600 nm} when phage were rescued with helper phages. After an overnight culture, monoclonal phage were harvested from the supernatant by precipitation with PEG/NaCl and resuspended in 1 ml PBS/1% BSA. For flow cytometry staining, 5×10⁵ cells were incubated for one hour on ice with 100 μl of 20×PEG concentrated phage antibody clone. Cells were washed in flow buffer (PBS 1% FBS, 1 mM EDTA, 0.02% Sodium azide) and the phage antibody clones detected with monoclonal anti-M13 antibody (Amersham Biosciences). Cells were washed and stained with R-PE congugated anti-mouse antibody. For diabody staining, 5×10⁵ cells were incubated for one hour on ice with the diabody at a 2 μg/ml concentration in flow buffer. Cells were washed and the diabody detected with 1/100 anti-c-Myc-biotin antibody in flow buffer. Cells were finally washed and stained with 1/40 Streptavidin-R-PE (SIGMA) in flow buffer.
The eleven individual phage clones selected by ELISA were tested for cell binding of N-cadherin positive cells (PC3 and LNCaP N-cadherin transfected cells) by flow cytometry. […]

[3] = biological target: N-cadherin on the cell surface (PC3 cells and LNCaP N-cadherin transfected cells) (human) (UniProt P19022); assay: flow cytometry, phage clone on N-cadherin positive cells (cell line not stated)
[4] = biological target: T2, N-cadherin extracellular domains one to three recombinant protein with GST tag (human) (UniProt P19022); assay: phage ELISA, second phage batch, plate coated with ECD1-3-GST
T2 sequence (looked up): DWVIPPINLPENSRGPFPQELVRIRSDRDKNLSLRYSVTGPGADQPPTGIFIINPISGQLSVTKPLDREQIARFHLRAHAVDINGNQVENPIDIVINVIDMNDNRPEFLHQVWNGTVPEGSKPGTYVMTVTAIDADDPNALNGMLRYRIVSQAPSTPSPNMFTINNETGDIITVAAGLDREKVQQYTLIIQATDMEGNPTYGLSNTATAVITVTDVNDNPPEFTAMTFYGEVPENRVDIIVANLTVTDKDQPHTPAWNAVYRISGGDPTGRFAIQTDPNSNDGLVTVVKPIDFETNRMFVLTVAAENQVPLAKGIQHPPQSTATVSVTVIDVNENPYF

[5] = biological target: T3, N-cadherin extracellular domains one to three recombinant protein with 6 histidine tag (human) (UniProt P19022); assay: phage ELISA, plate coated with ECD1-3-6HIS
T3 sequence (looked up): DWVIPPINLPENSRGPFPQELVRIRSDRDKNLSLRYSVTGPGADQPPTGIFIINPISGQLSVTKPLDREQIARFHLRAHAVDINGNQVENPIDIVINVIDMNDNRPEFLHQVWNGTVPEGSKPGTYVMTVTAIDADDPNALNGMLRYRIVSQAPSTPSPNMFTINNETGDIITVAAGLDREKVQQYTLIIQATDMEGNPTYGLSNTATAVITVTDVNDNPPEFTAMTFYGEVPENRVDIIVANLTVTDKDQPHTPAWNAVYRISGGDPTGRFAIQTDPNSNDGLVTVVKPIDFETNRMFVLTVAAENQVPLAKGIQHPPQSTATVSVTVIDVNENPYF

[6] = biological target: T2, N-cadherin extracellular domains one to three recombinant protein with GST tag (human); assay: phage ELISA, plate coated with ECD1-3-GST
[7] = biological target: T3, N-cadherin extracellular domains one to three recombinant protein with 6 histidine tag (human); assay: phage ELISA, second phage batch, plate coated with ECD1-3-6HIS
[8] = biological target: T4, N-cadherin extracellular domains one to three recombinant protein with 6 histidine tag (human, UniProt P19022 160-497); assay: phage ELISA
T4 construct: range 160-497; Expressed in bacteria and purified from the periplasmic fraction on Ni-NTA; also called ECD1-3-6HIS; ECD1-3 6HIS; not shown: 6 histidine tag
T4 sequence (looked up): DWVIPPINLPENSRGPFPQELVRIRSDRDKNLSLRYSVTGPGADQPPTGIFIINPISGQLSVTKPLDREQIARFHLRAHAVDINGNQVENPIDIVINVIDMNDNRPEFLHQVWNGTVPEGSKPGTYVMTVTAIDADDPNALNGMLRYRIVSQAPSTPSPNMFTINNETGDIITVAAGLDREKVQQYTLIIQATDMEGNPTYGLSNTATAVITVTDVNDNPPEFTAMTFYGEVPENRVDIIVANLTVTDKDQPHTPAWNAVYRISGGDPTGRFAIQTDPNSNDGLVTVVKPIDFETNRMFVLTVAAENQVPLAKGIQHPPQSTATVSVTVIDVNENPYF

B1: D4 diabody (other)
chain: MAQVQLVQSGAEVKRPGASVRISCKASGYPFTTYPIHWVRQAPGQGLEWMGGINPNSGATKNVQKFQGRVTMTADTSIRTAYMELSRLTSDDTAVYYCARGEGDTGSYLGGYWGLGTLVTVSSGGGGSSELTQDPAVSVALGQTVRITCQGDSLRSYYASWYQQKPGRAPLLVIYGKNIRPSGIPDRFSGSSSGNSASLTITGAQAEDEADYYCNSRDRSGNYLFGVGTKVTVLG
notes: Diabody made from the scFv by shortening the linker; also called D4 Db; not shown: c-Myc and 6HIS tags from the pSyn1 vector
B1: binds [1].

B2: E4 diabody (other)
chain: MAQVQLVQSGAEVKKPGESLEISCKGSGYSFANNWIGWVRQMPGKGLEWMGSIYPGDSDVRYSRSFQGHVTISADKSISTAYLQWSSLKASDTAMYYCARHRVAYSGYDAFDIWGQGTMVTVSSGGGGSSVLTQDPAVSVALGQTVRITCQGDSLRSYYPSWYQQKPGQAPVLVIYGKNNRPSGIPDRFSGSSSGNTASLTITGAQAEDEADYYCHSRDRSGNQVLFGGGTKVTVLG
notes: Diabody made from the scFv by shortening the linker; also called E4 Db; not shown: c-Myc and 6HIS tags from the pSyn1 vector
B2: binds [2].

B3: D4 phage antibody clone (scFv)
scFv: MAQVQLVQSGAEVKRPGASVRISCKASGYPFTTYPIHWVRQAPGQGLEWMGGINPNSGATKNVQKFQGRVTMTADTSIRTAYMELSRLTSDDTAVYYCARGEGDTGSYLGGYWGLGTLVTVSSGGGGSGGGGSGGGGSSELTQDPAVSVALGQTVRITCQGDSLRSYYASWYQQKPGRAPLLVIYGKNIRPSGIPDRFSGSSSGNSASLTITGAQAEDEADYYCNSRDRSGNYLFGVGTKVTVLG
In the case of B3, the Flow Cytometry (MFI) [3] is reported as 0 MFI.

B4: A14 diabody (other)
chain: MAQVQLVQSGGGLAQPGGSLRLSCAASGFTFSRHAMIWVRQAPGKGLEWVSSISGSSDSTSYADSVKGRFTISRDNSKNTLYLQMNTLRAEDTAVYYCAKATGYSYYYGMDVWGPGTTVTVSSGGGGSDIQMTQSPSSLSASLGDRVTITCRASQGISNYLAWYQQKPGKAPKLLIYGATTLQHGVPSRFSGSGSGTDFSLTISSLQPEDFAIYFCQQAHSFPPTFGGGTKLEIKR
notes: Diabody (small bivalent antibody fragment) made from the scFv by shortening the linker from 15 to 5 a.a; also called A14 Db; not shown: c-Myc and 6HIS tags from the pSyn1 vector
B4: binds [2].

B5: A8 phage antibody clone (truncated) (scFv)
scFv: MAQVQLQESGWYFDLWGRGTPVTVSSGGGGSGGGGSGGGGSEIVLTQSPSSLSASVGDRVTITCRASQGIRNDLGWYQQKPGKAPKLLIYAASSLQSGVPSRFSGSGSGTDFTLTISSLQPEDFATYYCLQDYNGWTFGQGTKVEIKR
In the case of B5, the 2nd ELISA (O.D) [4] is reported as 0.05 O.D, the 1st ELISA (O.D) [5] is reported as 0.25 O.D and the 1st ELISA (O.D) [6] is reported as 0.17 O.D. For the same binder, the 2nd ELISA (O.D) [7] was 0.11 O.D and the Flow Cytometry (MFI) [3] was 30 MFI.

B6: A14 ScFv phage antibody clone (scFv)
scFv: MAQVQLVQSGGGLAQPGGSLRLSCAASGFTFSRHAMIWVRQAPGKGLEWVSSISGSSDSTSYADSVKGRFTISRDNSKNTLYLQMNTLRAEDTAVYYCAKATGYSYYYGMDVWGPGTTVTVSSGGGGSGGGGSGGGGSDIQMTQSPSSLSASLGDRVTITCRASQGISNYLAWYQQKPGKAPKLLIYGATTLQHGVPSRFSGSGSGTDFSLTISSLQPEDFAIYFCQQAHSFPPTFGGGTKLEIKR
notes: Clone A1 was renamed A14; Selected on ECD4-6HIS; also called A14 (A1)
B6: no binding [8].
